Consider five molecules from patent publication US20220154156A1, “PROTEINS AND METHODS FOR DISRUPTING BACTERIAL COMMUNICATION” (REGENTS OF THE UNIVERSITY OF MINNESOTA, priority 2019, published 2022).

Where “and” joins values, the source holds several entries; their conditions need not be identical. Equal values may be shown once. Numbered stars: 1 amine (or outer) side, 2 acyl side, 3 side chain; on linkers, the order of the positions; unused ones are H or OH. Bridge positions count the residues as written; N and C are the ends. Square brackets hold non-standard residues; d marks the D form. Peptide text beside a SMILES is read from it. X1 = CC(C)CCCCCCCCC[C@H](CC(=O)[*:1])O[*:2]

Series [1] concerns corrosion tubercles on steel coupons. Briefly: Biocorrosion of coated steel coupons in Duluth-Superior Harbor water, 8 weeks. The arrangement: concentration or dose not given beside the values. To be noted: silica gel coating, two months in DSH water. The method, then:
The steel coupons were washed with soap water, lightly brushed for a few seconds with a test tube brush, and then rinsed with Milli-Q water to remove any loose material. Each coupon was designated with a unique number and weighed before being randomly assigned to a specific experimental treatment.
Each compound or enzyme was added to 5 ml of the silica gel matrix to develop different coating treatments. These coatings were applied by dipping coupons into the appropriate gel mixture for 1 minute, and then the coating on the coupon surface was air-dried at room temperature for 2 hours.
Six treatments and three controls were investigated for corrosion rate and changes in bacterial communities (Table 10). Each treatment or control contained three replicate steel coupons. After the triplicate steel coupons were coated with each biochemical, enzyme or bacterial treatment, they were incubated in experimental microcosms constructed from 10-gallon glass aquaria (Aqueon Glass, 50.8 cm×25.4 cm×30.5 cm) (FIG. 24). Each microcosm was equipped with an aquarium pump (Aquarium Systems Mini-Jet 404) to constantly circulate the water (˜2 L hr−1), and covered with a piece of acrylic with one corner cut out to allow gas exchange. The coupons were hold with plastic holders and immersed in water taken from the DSH for 8 weeks and then recovered for analyses.
The coupons in each treatment was photographed by the end of the experiment. Biocorrosion was evaluated by the number and coverage of corrosion tubercles, and also by imaging of coupon surfaces with an environmental scanning electron microscope (ESEM). The coupon images were captured with DSLR camera immediately after being removed from the harbor water, and then tubercle numbers and total area in digital images were measured using the analyze menu within ImageJ software (NIH, Bethesda, Md., USA). Surface roughness measurements were also made after the exposed coupons were cleaned with ASTM G1-90 iron and steel chemical cleaning procedure (2 min in 37% HCl, 50 g/L SnCl2). A Hitachi TM-3030 ESEM was used to view details of the cleaned coupon surface and the 3D-View software was used to generate surface roughness measurements (SRa). Statistics analysis (T-tests) of the tubercle numbers, coverage and surface roughness were performed using Microsoft Excel software.

The test system of series [2] is bacterial communities at the surface of the steel. In words: 16S rDNA analysis of microbial community on steel coupons. To be noted: treated coupons. The procedure: After photo imaging, on each of the coupon surface, all material including biofilm and tubercles were scraped into a sterile 50 ml polypropylene centrifuge tube (Corning, N.Y., USA) using a steel scraper. A 0.5 g subsample of the surface material from each coupon sample was used for DNA extraction using PowerSoil DNA kit (MoBio Laboratories). The extracted DNA was used to sequence the V4 region of 16S rDNA gene and describe changes in the composition of bacterial communities. DNA samples were quantified with a NanoDrop 2000 Spectrophotometer (Thermo Scientific, Waltham, Mass. USA) and then sent overnight to the University of Minnesota Genomics Center for 16S rDNA sequencing. 30 samples were multiplexed into a single run of Illumina MiSeq paired-end 300 cycles, which was expected to generate a total of 15 million sequences of the 254 bp portions of the 16S rDNA V4 region.
Sequence data were processed and analyzed using the MOTHUR program. To ensure high quality data for analysis, sequence reads containing ambiguous bases, homopolymers >7 bp, more than one mismatch in the primer sequence, or an average per base quality score below 25 were removed. Sequences that only appear once in the total set were assumed to be a result of sequencing error and removed from the analysis. Chimeric sequences were also removed using the UCHIME algorithm within the MOTHUR program. […]

In series [3] the target is GcL, quorum quenching lactonase from Geobacillus caldoxylosilyticus (Parageobacillus caldoxylosilyticus) (Geobacillus caldoxylosilyticus (Parageobacillus caldoxylosilyticus)). Briefly: X-ray crystal structure, homodimer interface analysis.
In the next series the test system is algae and Zebra mussels. In words: Antifouling activity of acrylic-lactonase coating, Lake Minnetonka, 1 month. The following applies: 200 μg/mL, polycarbonate, controls BSA, copper oxide. The procedure: Various polycarbonate samples were submerged in Lake Minnetonka (Tonka bay marina) for 1 month. Coatings were prepared with 200 μg/mL of control ingredients (BSA or copper oxide (CuO)) and of lactonases (SsoPox and GcL). Large zebra mussels are circled.
We note that microscopy imaging highlights large differences in the surface colonization between the different treatments.

A further series has as its system Pseudomonas aeruginosa. Briefly: Caenorhabditis elegans infection models (slow-killing, paralysis). The class given is in vivo. To be noted: dose-dependent. The source says:
FIG. 34A-34C show protection of Caenorhabditis elegans from infection by Pseudomonas aeruginosa by lactonases. Slow-killing, gut infection assay performed with P. aeruginosa. Lactonases SsoPox (A) and GcL (B) are sprayed in the petri dish plate, and final concentrations are given. (C) Paralysis assay by P. aeruginosa, and treatment with SsoPox. […] OP50 Escherichia coli strain serves as a non-virulent control.
The protection by lactonases is dose-dependent (FIG. 34) in both models.

A short description of series [4]: Lactonase assay (pH indicator, cresol purple), kinetic measurements. The class given is biochemical. The procedure: Kinetic measurements. The determination of GcL catalytic efficiency was performed by using a microplate reader (Synergy HTX, BioTek, USA) and the software Gen5.1 over a range of substrates (FIG. 2). The reactions were operate in a 96-well plate at a path length of 5.8 mm for a 200 μl reaction volume at room temperature. The catalytic parameters were achieved by fitting the data to Michaelis-Menten equation with the Graph-Pad Prism 5 software. When, Vmax was not reached, the catalytic efficiency was determined by fitting the linear part of Michaelis-Menten plot to a linear regression using Graph-Pad Prism 5.
Lactonase assay. The AHL lactonolysis consisting in the opening of the lactone ring generates a proton, and leads to an acidification of the media. This property allowed the characterization of the lactonases by using a pH indicator assay. To perform the experiment 5 μl of enzyme were added to a solution containing 10 μl of substrates at various concentrations and 185 μl of lactonase buffer (2.5 mM Bicine pH 8.3, 150 mM NaCl, 0.2 mM CoCl2, 0.2 mM cresol purple, 0.5% DMSO). This assay was performed at 25° C. and the time course of the lactones hydrolysis was recorded at 577 nm. The characterization of the enzyme was proceeding against a large panel of AHLs: C4-AHL, C6-AHL, C8-AHL, C10-AHL, 3-oxo-C8-AHL and against γ-Butyrolactone, γ-Heptalactone, γ-Nonalactone, γ-Decanolactone, δ-Valerolactone, δ-Octanolactone, δ-Nonalactone, δ-Decalactone, ε-Caprolactone, ε-Decalactone, Whiskey lactone.

Another series concerns soil bacterial community. Briefly: Different lactonases on soil microbial community (Example 8). The class given is cell-based. The following applies: 7 days, vs inactive SsoPox 5A8. The method, then:
Principal component analysis (PCA) based on deep bacterial 16S rDNA sequences (Illumina V4 region).
The same experiments as described above were performed on the same soil microbial community but with two different lactonases, GcL, and Ssopox W263I. These enzymes differ primarily by their substrate specificity. […] This is important because different bacteria use different AHLs to communicate. Indeed, The structure of AHLs vary a lot with respect to the length of N-acyl chains (from C4 to C18), the hydroxyl or oxo group of the acyl chain and the saturated or unsaturated state of the carbon chain^1. The hydrophobicity of AHLs relates to their passive diffusion through membranes. […] In fact, regulatory circuits may be interconnected, like in P. aeruginosa^6, and allow for compensatory responses: if the LasI/LasR system is inactivated, the RhlI/RhlR system can still control LasI/LasR-spectific functions^7.

The conditions of series [5]: at 75° C.; cited from earlier work.
Series [6] in a line: Paraoxonase activity of SsoPox variants after incubation at 80° C. To be noted: compared with wt enzyme and SsoPox W263I. The class given is physicochemical.
A short description of series [7]: Enzymatic characterization of SsoPox 6 and SsoPox 19. To be noted: esters, lactones and phosphotriesters; compared with wt. The class given is biochemical. The source says:
We determined the ability of these two variants to hydrolyze a wide range of substrates, including esters, lactones and phosphotriesters (FIG. 23).

Regarding `CC(C)CCCCCCCCC[C@@H]1CC(=O)N[C@@H](CCC(=O)O)C(=O)N[C@@H](CC(C)C)C(=O)N[C@H](CC(C)C)C(=O)N[C@@H](C(C)C)C(=O)N[C@@H](CC(=O)O)C(=O)N[C@H](CC(C)C)C(=O)N[C@@H](CC(C)C)C(=O)O1` [surfactin] (EL[dL]VD[dL]L; linker N-C via X1), in series [1], the “reduction of the coverage of corrosion tubercles” value is on record as 37% and the “reduction of the number (formation) of corrosion tubercles” value is recorded as 31%. Besides, the “abundance of Burkholderiales, Pseudomonadales and Rhodospirillales” value in [2] was “significantly reduced”.
In series [3], “GcL, quorum quenching lactonase from Geobacillus caldoxylosilyticus (Parageobacillus caldoxylosilyticus) (from UniProt A3FJ64 1-250) (enzyme)” yielded an interface surface between dimer of 1180 Å^2.

B1: SsoPox: lactonase isolated from Sulfolobus solfataricus, SEQ ID NO:5 (protein, listed as Sulfolobus solfataricus)
chain: GMVRISIAGGNEIDPGSMGLTLFHEHLRLITEVVRWNWPHLYNEDEELKRAIDAVNAAKKYGVKTIIDLTVAGIGCDVRFNEKVAKATGVNIIMGTGFYTYTEIPFYFKNRGIDSLVDAFVHDITIGIQGTNTRAAFVKAVIDSSGLTKDVEMAIRAAAKAHIKTDVPIITHSFVGNKSSLDLIRIFKEEGVDLARTVIGHVGDTDDISFIEQILREGAFIGLDRFGLDIYLPLDKRVKTAIELIKRGWIDQLLLSHDYCPTIDWYPPEVVRSTVPDWTMTLIFEKVIPRMRSEGITEEQINRVLIDNPRRLFTGR
Take B1: the inhibition of biofouling result with algae and Zebra mussels is reported as “more efficient at inhibiting biofouling than controls”. Further, the “survival of Caenorhabditis elegans” value in the series with Pseudomonas aeruginosa is “increase survival”.

B2: GcL: lactonase isolated from the thermophilic bacteria Geobacillus caldoxylosilyticus, SEQ ID NO:1 (protein, listed as Parageobacillus caldoxylosilyticus)
chain: MTVKKLYFIPAGRCMLDHSSVNSALTPGKLLNLPVWCYLLETEEGPILVDTGMPESAVNNEGLFNGTFVEGQILPKMTEEDRIVNILKRVGYEPDDLLYIISSHLHFDHAGGNGAFTNTPIIVQRTEYEAALHREEYMKECILPHLNYKIIEGDYEVVPGVQLLYTPGHSPGHQSLFIETEQSGSVLLTIDASYTKENFEDEVPFAGFDPELALSSIKRLKEVVKKEKPIIFFGHDIEQEKSCRVFPEYI
One may read the Km as the concentration of substrate that gives half-maximal velocity. As usually defined, the half-life is the time in which the quantity being followed falls by half. Consider B2, for which the substrate specificity entry in series [4] (AHL acyl chain length) was “proficiently degrades lactones ranging from C4 to C12 AHLs”. Moreover, the catalytic efficiencies in [4] (AHLs with both short and long acyl chains) is on record as 10^4 to 10^6 M^−1·s^−1. Further, the Km in [4] (range over tested substrates (with the exception of C4-AHL)) is 0.5 to 20 µM and 0.67 to 21.1 µM. In the series with algae and Zebra mussels, the inhibition of biofouling entry is recorded as “more efficient at inhibiting biofouling than controls”. Besides, the “survival of Caenorhabditis elegans” value with Pseudomonas aeruginosa is given as “increase survival”. The “planktonic microbial community composition” value in the series on soil bacterial community is on record as “induce differential planktonic microbial community biases”. In addition, the half-life in series [5] was 2.542 ± 0.167 h.

B3: SsoPox 19: SsoPox variant with 19 node 55 mutations, SEQ ID NO:13 (protein)
chain: MKIPLVGKDEIEPREMGFTLIHEHLRVFSEAVRQQWPHLYNEDEEFRNAVNEVKTAMSYGVKTIVDPTVMGLGRDIRFMEKVVKATGINVIAATGIYIYTDLPFYFNNRSIDEIADLFIHDIKEGIQGTNNKAGFVKVAADEPGITKDVEKVIRAAAIAHKETKVPIITHSNAHNNTGLEQQRILMEEGVDPGKILIGHLGDTDNIDYIKKIADKGSFIGLDRYGLDLFLPVDKRNETTLKLIKDGYSDKIMISHDYCCTIDWGTAKPEYKPKLAPRWSITLIFEDTIPFLKRNGVNEEVIATIFKENPKKFFS
modifications: SsoPox19 variant
As to B3, the “paraoxon hydrolysis after incubation of different times at 80° C.” value in series [6] was “withstanding better the incubation at 80 °C than the wt enzyme and SsoPox W263I”. Further, the activity levels entry in [7] was “extremely similar to those of the wt enzyme”.
